How the values were obtained:
[1] = target: T1, Control Ig (recombinant mouse IgG2a Fc protein) (mouse, UniProt P01863 98-330 = IgG part, limits assumed); experiment: ELISA screen of hybridomas
T1 construct: domain: Fc; Bought control protein; also called control mouse IgG2a Fc; control Ig protein

[2] = target: T2, mouse CD28 on transfected HEK-293 cells (mouse, UniProt P31041 20-218); experiment: flow cytometry, biotinylated mBTN5-Ig and streptavidin-PE on transfected HEK-293 cells
T2 construct: whole, on cells
T2 sequence (looked up): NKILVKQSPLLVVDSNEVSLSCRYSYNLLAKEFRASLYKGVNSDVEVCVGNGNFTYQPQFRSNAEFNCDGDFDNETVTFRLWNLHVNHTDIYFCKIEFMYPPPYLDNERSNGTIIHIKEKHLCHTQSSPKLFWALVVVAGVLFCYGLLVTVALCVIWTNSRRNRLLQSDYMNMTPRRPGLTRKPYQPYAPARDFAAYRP
Method: (§1) FIG. 20. The expression pattern of the mBTN5 putative receptor. (A) Splenocytes from C57BL/6 mice were freshly harvested and analyzed for resting immune cells. For T cell activation, splenocytes were incubated with anti-CD3 (1 μg/ml) and anti-CD28 (0.5 μg/ml) antibodies for 3 days. For the activation of B cells, DCs and monocytes, splenocytes were incubated with LPS (10 μg/ml) for 3 days. The resting and active immune cells were stained with anti-CD4, CD8, B220, CD11c, or CD11b antibodies, and biotinylated mBTN5-Ig or control Ig, followed by streptavidin-PE. Representative flow cytometric profiles showing the binding of mBTN5-Ig or control Ig to resting and activated immune cells. (B, C) HEK-293 cells were transfected with an expression vector containing murine PD-1, CD28, BTLA, CTLA-4, or ICOS gene. The transfected cells were stained with (B) antibodies against the respective PD-1, CD28, BTLA, CTLA-4, or ICOS protein, (C) biotinylated mBTN5-Ig or control Ig, followed by streptavidin-PE. Representative flow cytometric profiles showing the binding of (B) the antibodies or (C) mBTN5-Ig to the transfected cells. Representative of 3 independent experiments.

[3] = target: T3, mouse CTLA-4 on transfected HEK-293 cells (mouse, UniProt P09793 36-223); experiment: as above
T3 construct: whole, on cells
Method: as §1

[4] = target: T4, mouse PD-1 on transfected HEK-293 cells (mouse, UniProt Q02242 25-288); experiment: as above
T4 construct: whole, on cells
T4 sequence (looked up): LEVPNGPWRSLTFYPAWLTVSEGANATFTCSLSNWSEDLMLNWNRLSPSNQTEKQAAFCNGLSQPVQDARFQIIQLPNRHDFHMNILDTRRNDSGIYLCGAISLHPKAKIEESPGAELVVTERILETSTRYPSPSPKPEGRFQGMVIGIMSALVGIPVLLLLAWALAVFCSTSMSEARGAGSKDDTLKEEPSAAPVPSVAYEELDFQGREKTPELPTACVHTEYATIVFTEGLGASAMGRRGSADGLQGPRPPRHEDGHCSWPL
Method: as §1

[5] = target: T5, mouse BTLA on transfected HEK-293 cells (mouse, UniProt Q7TSA3 30-306); experiment: as above
T5 construct: whole, on cells
T5 sequence (looked up): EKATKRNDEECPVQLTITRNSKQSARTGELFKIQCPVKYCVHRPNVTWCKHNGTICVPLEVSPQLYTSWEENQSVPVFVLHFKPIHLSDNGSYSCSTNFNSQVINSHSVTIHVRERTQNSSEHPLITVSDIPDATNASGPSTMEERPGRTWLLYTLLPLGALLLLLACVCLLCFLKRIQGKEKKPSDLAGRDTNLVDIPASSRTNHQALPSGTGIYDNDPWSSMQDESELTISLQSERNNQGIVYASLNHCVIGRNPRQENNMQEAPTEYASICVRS
Method: as §1

[6] = target: T6, mouse ICOS on transfected HEK-293 cells (mouse, UniProt Q9WVS0 21-200); experiment: as above
T6 construct: whole, on cells
T6 sequence (looked up): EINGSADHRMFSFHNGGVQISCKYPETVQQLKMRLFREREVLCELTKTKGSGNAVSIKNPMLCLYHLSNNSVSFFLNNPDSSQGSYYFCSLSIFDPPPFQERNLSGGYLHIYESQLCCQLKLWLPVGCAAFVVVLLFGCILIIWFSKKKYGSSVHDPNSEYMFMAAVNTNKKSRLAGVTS
Method: as §1

[7] = target: T2, mouse CD28 on transfected HEK-293 cells; experiment: flow cytometry, biotinylated mCD300c2-Ig on transfected HEK-293 cells
Method: (§2) To determine whether mCD300c binds to molecules previously identified as receptors of the known B7 family members, HEK-293 cells were transfected with an expression vector containing the mouse CD28. CTLA4, PD-1, BTLA or ICOS gene. The expression of these receptors on the transfected 293 cells was confirmed by flow cytometric analysis with the antibodies against the respective receptors (FIG. 5C). The binding of mCD300c to the transfected HEK-293 cells was then analyzed.

[8] = target: T3, mouse CTLA-4 on transfected HEK-293 …; experiment: as above
Method: as §2

[9] = target: T4, mouse PD-1 on transfected HEK-293 cells; experiment: as above
Method: as §2

[10] = target: T5, mouse BTLA on transfected HEK-293 cells; experiment: as above
Method: as §2

[11] = target: T6, mouse ICOS on transfected HEK-293 cells; experiment: as above
Method: as §2

[12] = target: T2, mouse CD28 on transfected HEK-293 cells; experiment: flow cytometry, biotinylated Skint8-Ig and streptavidin-PE on transfected HEK-293 cells
Method: (§3) FIG. 15. The expression pattern of the Skint8 putative receptor. (A, B) Spleen cells were harvested from C57BL/6 mice. To obtain activated T cells, the spleen cells were incubated with anti-CD3 (1 μg/ml) and anti-CD28 (0.5 μg/ml) antibodies for 3 days. To obtain activated B cells, monocytes and DCs, the spleen cells were incubated with LPS (10 μg/ml) for 3 days. The freshly harvested and activated immune cells were stained with biotinylated Skint8-Ig or control Ig, followed by streptavidin-PE, as well as anti-CD4, CD8, B220, CD11b, or CD11c antibodies to identify the immune cells. (A) Representative flow cytometric profiles and (B) Statistical analysis showing the binding of Skint8-Ig or control Ig to freshly harvested and activated immune cells. (B) Data are presented as relative fluorescence intensity (RFI) for cell binding of Skint8-Ig versus control Ig. (C) HEK-293 cells were transfected with an expression vector containing the murine PD-, CD28, BTLA, CTLA-4, or ICOS gene and screened for cells stably expressing each gene. The transfected cells were stained with antibody against the respective PD-1, CD28, BTLA, CTLA-4, or ICOS protein (open histograms) or isotype antibody (shaded histograms). Representative flow cytometric profiles showing the expression of each receptor. (D) PD-, CD28, BTLA, CTLA-4, or ICOS gene-transfected HEK-293 cells were stained with biotinylated Skint8-Ig or control Ig, followed by streptavidin-PE. Representative flow cytometric profiles showing the binding of Skint8-Ig (open histograms) or control Ig protein (shaded histograms) to the transfected cells. The data are representative of 3 independent experiments.
(§4) Single cell suspensions of organs were stained with the fluorochrome-conjugated antibodies protein as described (38-41). Direct or indirect staining of fluorochrome-conjugated antibodies included: CD4, CD8, B220, CD11c, CD11b, F4/80, CD69, CD44, CD62L, IFNγ, TNFα, IL-2, IL-10, CD28, CTLA-4, PD-1, BTLA, and ICOS (BioLegend, or BD Biosciences, San Jose, Calif., San Diego, Calif.). Skint8-g, Skint8 IgV-Ig or Skint8 IgC-Ig proteins were biotinylated with sulfo-NHS-LC-Biotin (Pierce) and detected by streptavidin-PE. The samples were analyzed on a FACSCalibur or LSRFortessa X-20 Cell Analyzer (BD Biosciences). Data analysis was done using FlowJo software (Ashland, Oreg.).

[13] = target: T3, mouse CTLA-4 on transfected HEK-293 …; experiment: as above
Method: as §3, §4

[14] = target: T4, mouse PD-1 on transfected HEK-293 cells; experiment: as above
Method: as §3, §4

[15] = target: T5, mouse BTLA on transfected HEK-293 cells; experiment: as above
Method: as §3, §4

[16] = target: T6, mouse ICOS on transfected HEK-293 cells; experiment: as above
Method: as §3, §4

[17] = target: T7, Human CD300c-Ig fusion protein (human); experiment: ELISA screen of hybridomas
T7 construct: also called hCD300c-Ig; hCD300-Ig
T7 chain: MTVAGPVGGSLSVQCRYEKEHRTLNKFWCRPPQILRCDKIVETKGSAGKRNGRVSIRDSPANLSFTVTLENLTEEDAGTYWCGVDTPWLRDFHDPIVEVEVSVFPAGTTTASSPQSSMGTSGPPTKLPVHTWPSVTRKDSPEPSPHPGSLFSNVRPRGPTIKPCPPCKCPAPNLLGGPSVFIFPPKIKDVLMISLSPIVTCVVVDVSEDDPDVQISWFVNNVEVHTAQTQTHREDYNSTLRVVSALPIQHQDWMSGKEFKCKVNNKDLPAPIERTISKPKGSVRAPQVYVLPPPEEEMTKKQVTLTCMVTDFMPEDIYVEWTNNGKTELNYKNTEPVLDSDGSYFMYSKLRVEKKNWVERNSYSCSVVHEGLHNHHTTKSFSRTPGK

B1: anti-hTAPBPL mAb (clone 54) (antibody, V domains shown)
VH: DVQLQESGPGLVKPSQTLSLTCSVTGYSLTSGYFWHWIRQFPGNKLEWMGYISYSGTTNYNPSLKNRISITHDSSKNQFFLNLNSVTAEDTATYFCAGDDWDWFAYWGQGTLVTVSA
VL: ENVLTQSPAIMSASPGEKVTMTCSASSSVNYMHWYQQKSSTSPKLWIYDTSKLASGVPGRFSGSGSGNSYSLTISSMEAEDVATYYCFQGSGYPLTFGSGTKLEIK
notes: Mouse hybridoma mAb; also called anti-TAPBPL mAb
B1: no binding [1].

B2: mBTN5-Ig fusion protein (Fc fusion)
chain: QPPVQVLGDAGKVYIAPLRDTANLPCPLFLWPNMVLSEMRWYRPGHLPRTQAVHVFRDGQDRDEDLMPEYKGRTALVRDAHKESYILQISNVRLEDRGLYQCQVWVGNS
modifications: biotinylated with sulfo-NHS-LC-Biotin (sites not given)
notes: Made in HEK-293 cells; not shown: constant region of mouse IgG2a from the pCMV6-AC-FC-S expression vector (ORIGENE)
B2: no binding [2]; no binding [3]; no binding [4]. B2: no binding [5]; no binding [6].

B3: mCD300c2-Ig fusion protein (Fc fusion)
chain: CVPLHGPSTITGTVGKSLSVSCQYEEKFKTKDKFWCRGSLKVLCKDIVKTSSSEEVRNGRVTIRDHPDNLTFTVTYESLTLEDADTYMCAVDISLFDGSLGFDKYFKIELSVVPSEDPVTGSSLESGRDILESPTSSVGHTHPSVTTDDTIPTPCPQPRSLRSSLYFRVLVS
modifications: biotinylated with sulfo-NHS-LC-Biotin for flow cytometry (sites not given)
notes: Made in HEK293F cells; also called mCD300c-Ig; not shown: constant region of mouse IgG2a from the pCMV6-AC-FC-S expression vector (ORIGENE)
B3: no binding [7]; no binding [8]; no binding [9]. B3: no binding [10]; no binding [11].

B4: Mouse Skint8-Ig fusion protein (Fc fusion)
chain: EKLRVTTPTRHLLARVGGQAELSCQVIPPHSVMHMEVRWFRSGHSQPVYLYRGGHKMSEEAAPEYANRTEFVKEAIGEGKVSLRIYNINILDDGPYQCSFNDSGFIDVAIMNLNVTAVGLETEIHVQAPDADGVMVECNTGGWFPRPQMEWRDSKGATLPHSLKSYSQDEARFFHMKMTLLLTNMSHGSIICCISNPVTGEEKQTSIIPRGPTIKPCPPCKCPAPNLLGGPSVFIFPPKIKDVLMISLSPIVTCVVVDVSEDDPDVQISWFVNNVEVHTAQTQTHREDYNSTLRVVSALPIQHQDWMSGKEFKCKVNNKDLPAPIERTISKPKGSVRAPQVYVLPPPEEEMTKKQVTLTCMVTDFMPEDIYVEWTNNGKTELNYKNTEPVLDSDGSYFMYSKLRVEKKNWVERNSYSCSVVHEGLHNHHTTKSFSRTPGK
modifications: biotinylated with sulfo-NHS-LC-Biotin in the flow cytometry assays (sites not given)
notes: Made in HEK-293 cells; also called Skint8-IgG Fc
B4: no binding [12]; no binding [13]; no binding [14]. B4: no binding [15]; no binding [16].

B5: anti-hCD300c mAb (clone B47-1D2) (antibody, V domains shown)
VH: QIQLVQSGPELRKPGETVKISCKASGYTFTIYGMNWMKQAPGKGLKWMGWINTYTGEPTYADDFKGRFAFSLETSASTAFLQINNLTNEDTATYFCARSRFAYWGQGTLVTVSA
VL: DIVMTQSQKFMSTSVGDRVSVTCKASQNVGTNVAWYQQKPGQSPKALIYSASYRYSGVPDRFTGSRSGTDFTLTISNVQSEDLAEYVCQQYNSYPLTFGAGTKLELK
notes: Mouse hybridoma mAb; also called anti-CD300c mAb
B5: binds [17]; no binding [1].

Reference: patent publication US20210206849A1 (UNIVERSITY OF CONNECTICUT, published 2021)
